Drawing on paper PMC8048298, this text covers Kd for one substance.

In test [1] the target is GST-SMARCA4-F4 (aa1009-1314) (human) (UniProt P51532). In words: ITC; peptide 1 mM in the syringe, protein 100 μM in the cell; 19 injections of 2 μl; PBS; 25 °C; MicroCal ITC-200.
The target of test [2] is Flag-tagged SMARCA4 purified from HCT116 cells (human) (UniProt P51532). In words: MST; SMARCA4 protein labelled with NT-647-NHS at 100 nM; peptides 10 nM to 500 μM; PBS pH 7.4, 0.05% Tween-20; 5 min incubation; Monolith NT.115; one-site binding (Kd formula).
The target of test [3] is GST-SMARCA4-F4 (aa1009-1314) (human) (UniProt P51532). Described as above.

With “histone H4 N-terminal 20 amino acid peptide, Arg3 asymmetrically dimethylated (H4R3me2a), C-terminal biotin (from UniProt P62805 2-21)”, the dissociation constant Kd is 2410 nM in test [1], 6.27 µM in test [2] and 5.36 µM in test [3].
